From PMC8163392, “Interrogating surface versus intracellular transmembrane receptor populations using cell-impermeable SNAP-tag substrates†” (Chemical Science, 2020)

Molecular target: the molecule itself
Test: single molecule pulldown (SiMPull) with counting of photobleaching steps; surface receptors labelled on live cells with 1 uM SBG-JF549; cells lysed in 1.2% IGEPAL, lysate diluted in 0.1% IGEPAL; receptors captured at low density by biotinylated anti-HA antibody on NeutrAvidin/PEG coverslips; TIRF imaging

B1: HA-SNAP-metabotropic glutamate receptor 2 (receptor, UniProt P31421 19-872, looked up)
chain: EGPAKKVLTLEGDLVLGGLFPVHQKGGPAEECGPVNEHRGIQRLEAMLFALDRINRDPHLLPGVRLGAHILDSCSKDTHALEQALDFVRASLSRGADGSRHICPDGSYATHSDAPTAVTGVIGGSYSDVSIQVANLLRLFQIPQISYASTSAKLSDKSRYDYFARTVPPDFFQAKAMAEILRFFNWTYVSTVASEGDYGETGIEAFELEARARNICVATSEKVGRAMSRAAFEGVVRALLQKPSARVAVLFTRSEDARELLAATQRLNASFTWVASDGWGALESVVAGSERAAEGAITIELASYPISDFASYFQSLDPWNNSRNPWFREFWEERFHCSFRQRDCAAHSLRAVPFEQESKIMFVVNAVYAMAHALHNMHRALCPNTTHLCDAMRPVNGRRLYKDFVLNVKFDAPFRPADTDDEVRFDRFGDGIGRYNIFTYLRAGSGRYRYQKVGYWAEGLTLDTSFIPWASPSAGPLPASRCSEPCLQNEVKSVQPGEVCCWLCIPCQPYEYRLDEFTCADCGLGYWPNASLTGCFELPQEYIRWGDAWAVGPVTIACLGALATLFVLGVFVRHNATPVVKASGRELCYILLGGVFLCYCMTFVFIAKPSTAVCTLRRLGLGTAFSVCYSALLTKTNRIARIFGGAREGAQRPRFISPASQVAICLALISGQLLIVAAWLVVEAPGTGKETAPERREVVTLRCNHRDASMLGSLAYNVLLIALCTLYAFKTRKCPENFNEAKFIGFTMYTTCIIWLAFLPIFYVTSSDYRVQTTTMCVSVSLSGSVVLGCLFAPKLHIILFQPQKNVVSHRAPTSRFGSAAPRASANLGQGSGSQFVPTVCNGREVVDSTTSSL
modifications: JF549 (two-colour experiment: JF549 or JF646) covalently attached to the SNAP-tag
notes: metabotropic glutamate receptor 2 (mGluR2), class C GPCR; The rat receptor is my surmise; also called HA-SNAP-mGluR2; SNAP-mGluR2; source: HEK 293T, transfected, in lysate (1.2% IGEPAL); not shown: SNAP-tag, N-terminal, kept
- stoichiometry N: 2
